# Measurements taken from paper PMC9122904, “Insights into the client protein release mechanism of the ATP-independent chaperone Spy” (Nature Communications, 2022).
# T1: Spy_(24-127) (UniProt P77754 47-150)
# T1 construct: Spy chaperone, residues 24-127; source: E. coli BL21 (DE3), purified (Ni-NTA, cation exchange, SEC); not shown: His6, N-terminal, cleaved; SUMO, N-terminal, cleaved
# T1 sequence (looked up): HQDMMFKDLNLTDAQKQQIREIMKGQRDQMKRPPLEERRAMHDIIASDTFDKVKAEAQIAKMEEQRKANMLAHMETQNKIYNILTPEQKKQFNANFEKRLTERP
# T2: Spy_(29-127) (UniProt P77754 52-150)
# T2 construct: Spy chaperone, residues 29-127; source: E. coli BL21 (DE3), purified (Ni-NTA, cation exchange, SEC); not shown: His6, N-terminal, cleaved; SUMO, N-terminal, cleaved
# T2 sequence (looked up): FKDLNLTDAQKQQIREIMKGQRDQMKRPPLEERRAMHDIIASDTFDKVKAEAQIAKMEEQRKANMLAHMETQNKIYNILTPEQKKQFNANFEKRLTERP
# T3: Spy_(27-127) (UniProt P77754 50-150)
# T3 construct: Spy chaperone, residues 27-127; source: E. coli BL21 (DE3), purified (Ni-NTA, cation exchange, SEC); not shown: His6, N-terminal, cleaved; SUMO, N-terminal, cleaved
# T3 sequence (looked up): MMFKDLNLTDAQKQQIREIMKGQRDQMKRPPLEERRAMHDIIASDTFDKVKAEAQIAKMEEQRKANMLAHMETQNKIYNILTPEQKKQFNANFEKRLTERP
# T4: Spy_(29-124) (UniProt P77754 52-147)
# T4 construct: also called termini-free Spy; source: E. coli BL21 (DE3), purified (Ni-NTA, cation exchange, SEC); not shown: His6, N-terminal, cleaved; SUMO, N-terminal, cleaved
# T4 sequence (looked up): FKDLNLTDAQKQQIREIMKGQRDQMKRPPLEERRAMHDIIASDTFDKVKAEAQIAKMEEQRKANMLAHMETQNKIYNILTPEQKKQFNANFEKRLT
# T5: Spy_(27-130) (UniProt P77754 50-153)
# T5 construct: Spy chaperone, residues 27-130; source: E. coli BL21 (DE3), purified (Ni-NTA, cation exchange, SEC); not shown: His6, N-terminal, cleaved; SUMO, N-terminal, cleaved
# T5 sequence (looked up): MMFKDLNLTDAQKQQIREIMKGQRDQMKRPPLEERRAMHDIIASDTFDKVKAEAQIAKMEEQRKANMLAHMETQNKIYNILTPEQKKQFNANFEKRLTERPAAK
# T6: Spy wild type (Spy_(1-138)) (UniProt P77754 24-161)
# T6 construct: Spy, ATP-independent periplasmic chaperone; also called WT; wt; source: E. coli BL21 (DE3), purified (Ni-NTA, cation exchange, SEC); not shown: His6, N-terminal, cleaved; SUMO, N-terminal, cleaved
# T6 sequence (looked up): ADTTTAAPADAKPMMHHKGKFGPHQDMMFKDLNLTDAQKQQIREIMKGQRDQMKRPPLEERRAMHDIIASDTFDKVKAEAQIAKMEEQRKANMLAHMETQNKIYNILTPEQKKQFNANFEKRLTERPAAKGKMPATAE
# T7: Spy_(21-127) (UniProt P77754 44-150)
# T7 construct: Spy chaperone, residues 21-127; source: E. coli BL21 (DE3), purified (Ni-NTA, cation exchange, SEC); not shown: His6, N-terminal, cleaved; SUMO, N-terminal, cleaved
# T7 sequence (looked up): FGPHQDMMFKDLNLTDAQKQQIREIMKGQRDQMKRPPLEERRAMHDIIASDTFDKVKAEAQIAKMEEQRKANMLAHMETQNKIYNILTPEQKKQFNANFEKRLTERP
# T8: Spy_(24-124) (UniProt P77754 47-147)
# T8 construct: source: E. coli BL21 (DE3), purified (Ni-NTA, cation exchange, SEC); not shown: His6, N-terminal, cleaved; SUMO, N-terminal, cleaved
# T8 sequence (looked up): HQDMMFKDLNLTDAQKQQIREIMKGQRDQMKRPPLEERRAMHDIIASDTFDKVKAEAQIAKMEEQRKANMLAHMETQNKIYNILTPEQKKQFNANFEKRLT
# B1: Im7 H40W L53A I54A (natural protein)
# chain: MELKNSISDYTEAEFVQLLKEIEKENVAATDDVLDVLLEWFVKITEHPDGTDAAYYPSDNRDDSPEGIVKEIKEWRAANGKPGFKQG
# modifications: biotin (EZ-link NHS-biotin, 1:1 molar ratio of biotin to protein)
# notes: Im7 (colicin E7 immunity protein) with H40W L53A I54A; Spy was made with an N-terminal His6-SUMO tag that was cleaved; also called Im7AAW; partially folded client; source: purified by a similar procedure to Spy
# What was measured:
# Assay in all cases: BLI; Octet RED96; client biotinylated and loaded on streptavidin sensors; Spy or Spy variant in solution at 0.25, 0.5, 1, 1.5 and 2 μM; 40 mM HEPES, 150 mM NaCl, pH 7.5; Kd calculated as koff/kon
# Details in all cases: both partners purified
# [1] = biological target: T1, Spy_(24-127)
# Outline: (§1)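 Client proteins were biotinylated with EZ-link NHS-biotin at a 1:1 molar ratio, loaded onto streptavidin sensors, and measured by biolayer interferometry on an Octet RED96. The loaded sensors were dipped into 40 mM HEPES, 150 mM NaCl, pH 7.5 holding the analyte protein at 0.25, 0.5, 1, 1.5 or 2 μM, then moved to buffer without it. Fitting the wavelength-shift association and dissociation curves in SigmaPlot 12.0 gave the observed association rate and koff, kon was taken from the observed rate plotted against analyte concentration, and Kd was calculated as koff/kon.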
# [2] = biological target: T2, Spy_(29-127)
# Outline: as §1
# [3] = biological target: T3, Spy_(27-127)
# Outline: as §1
# [4] = biological target: T4, Spy_(29-124)
# Outline: as §1
# [5] = biological target: T5, Spy_(27-130)
# Outline: as §1
# [6] = biological target: T6, Spy wild type (Spy_(1-138))
# Outline: as §1
# [7] = biological target: T7, Spy_(21-127)
# Outline: as §1
# [8] = biological target: T8, Spy_(24-124)
# Outline: as §1
binder,measurement,setting,value
B1,koff,[1],0.39 s⁻¹
same,koff,[2],0.095 s⁻¹
same,koff,[3],0.0933 s⁻¹
same,koff,[4],0.089 s⁻¹
same,koff,[5],0.092 s⁻¹
same,koff,[6],0.179 s⁻¹
same,koff,[7],0.512 s⁻¹
same,koff,[8],0.423 s⁻¹
